Test system: control human primary myoblasts
Assay: Expression microarray of primary myoblasts transduced with lentivirus carrying DUX4-fl, DUX4-s or GFP
Procedure: Primary human myoblasts were collected and cultured as previously described (Snider et al., 2010). Primary myoblasts were maintained at or below 70% confluency for proliferation. For differentiation, cells were allowed to reach 95-100% confluency in growth medium. Once confluency was reached, the cells were changed to differentiation medium (F10 media supplemented with 1% horse serum, 10 μg/mL insulin, and 10 μg/mL transferrin, penicillin/streptomycin) and maintained for 4 days. Human RD cells were grown in DMEM in 10% bovine calf serum (Hyclone) and penicillin/streptomycin. The primary myoblasts were transduced with lentivirus carrying DUX-fl, DUX4- or GFP (MOI=15).
Expression microarrays were performed on the transduced cells at 24 hours after transduction as follows. […] Samples were analyzed by Illumina Human Whole Genome microarrays. Probe intensities were corrected, normalized, and summarized by the Lumi package of Bioconductor (Du et al., 2008). Differentially expressed genes were identified by the LIMMA package of Bioconductor (Wettenhall and Smyth, 2004). Gene set enrichment analysis (GSEA) was performed using the Bioconductor GOstats package (Falcon and Gentleman, 2007).

B1: DUX4-s: short splice form of DUX4 (SEQ ID NO:112), keeps the double-homeobox domains, lacks the C-terminal activation domain (protein, listed as Homo sapiens)
chain: MALPTPSDSTLPAEARGRGRRRRLVWTPSQSEALRACFERNPYPGIATRERLAQAIGIPEPRVQIWFQNERSRQLRQHRRESRPWPGRRGPPEGRRKRTAVTGSQTALLLRAFEKDRFPGIAAREELARETGLPESRIQIWFQNRRARHPGQGGRAPAQV
For B1, the IFITM3 expression fc (Refseq NM_021034.2, cultured human skeletal muscle) was −0.1274, the NEFH expression fc (Refseq NM_021076.2) was 0.09952 and the “fc of SLC8A1 (expression array)” value (Refseq NM_021097.2) was 1.046. The PSAT1 fc (Refseq NM_021154.3) was 0.7365, the RAB40C fc (Refseq NM_021168.2) was −0.07138 and the “fc of SLC30A1 (expression array)” value (Refseq NM_021194.2) was 1.236. For the same molecule, the CTDSP1 fc (Refseq NM_021198.1) was 0.04155, the ARHGAP22 fc (Refseq NM_021226.2) was 0.07773 and the “fc of NTN4 (expression array)” value (Refseq NM_021229.3) was 0.03724. The PELI2 expression fc (Refseq NM_021255.2) was −0.3732, the PLEKHA2 fc (Refseq NM_021623.1) was 0.062 and the AVPI1 expression fc (Refseq NM_021732.1) was 0.1884. For the same molecule, the “fc of FAM3A (expression array)” value (Refseq NM_021806.1) was −0.1833, the APOBEC3G expression fc (Refseq NM_021822.1, cultured human skeletal muscle) was 1.408 and the “fc of C14orf93 (expression array)” value (Refseq NM_021944.1) was −0.1073. For the same molecule, the HSPA2 expression fc (Refseq NM_021979.3) was −0.2546, the CXCL16 fc (Refseq NM_022059.1) was 1.184 and the NOD2 fc (Refseq NM_022162.1) was 0.4347. For the same molecule, the IFIH1 expression fc (Refseq NM_022168.2, cultured human skeletal muscle) was 1.659, the HS1BP3 fc (Refseq NM_022460.3) was 0.05143 and the C14orf173 fc (Refseq NM_022489.2) was −0.2714. For the same molecule, the FEZ1 fc (Refseq NM_022549.2) was 0.19, the HIPK2 fc (Refseq NM_022740.2) was 0.3559 and the “fc of MOSC1 (expression array)” value (Refseq NM_022746.2) was −0.1084. For the same molecule, the PARP12 expression fc (Refseq NM_022750.2, cultured human skeletal muscle) was 0.7767, the CRTC3 fc (Refseq NM_022769.3) was −0.1184 and the FAM129B fc (Refseq NM_022833.2) was 0.4382. For the same molecule, the IFI6 expression fc (Refseq NM_022872.2, cultured human skeletal muscle) was −0.03611, the FGFR3 expression fc (Refseq NM_022965.1) was 0.04147 and the PRAMEF1 expression fc (Refseq NM_023013.1) was 0.0691. The PRAMEF2 expression fc (Refseq NM_023014.1) was −0.04937, the C8orf33 expression fc (Refseq NM_023080.1) was −0.06075 and the GRAMD3 fc (Refseq NM_023927.1) was 0.3772. It also gave an NEUROG2 expression fc (Refseq NM_024019.2) of −0.004473, an NUP37 fc (Refseq NM_024057.2) of −0.1339 and a PRRG4 expression fc (Refseq NM_024081.4) of 0.2096. The TRIM48 expression fc (Refseq NM_024114.2) was −0.07954, the DHX58 expression fc (Refseq NM_024119.2, cultured human skeletal muscle) was 0.6965 and the PRKAG2 fc (Refseq NM_024429.1) was 0.7547. The “fc of FAM65A (expression array)” value (Refseq NM_024519.2) was −0.1263, the “fc of ZC3HAV1 (expression array)” value (Refseq NM_024625.3) was 1.471 and the YRDC expression fc (Refseq NM_024640.3) was 0.000579. For the same molecule, the NPEPL1 fc (Refseq NM_024663.3) was −0.2631, the SNIP1 expression fc (Refseq NM_024700.2) was −0.174 and the “fc of FAM57A (expression array)” value (Refseq NM_024792.1) was −0.003135. For the same molecule, the C13orf34 expression fc (Refseq NM_024808.2) was −0.002127, the “fc of NUDT18 (expression array)” value (Refseq NM_024815.3) was 0.1692 and the “fc of ZNF672 (expression array)” value (Refseq NM_024836.1) was −0.1481. For the same molecule, the C14orf159 expression fc (Refseq NM_024952.5, cultured human skeletal muscle) was 0.5194, the NRSN2 fc (Refseq NM_024958.1) was 0.06807 and the SLC24A6 fc (Refseq NM_024959.2) was 0.0001018. For the same molecule, the CSRNP3 expression fc (Refseq NM_024969.2) was −0.07941, the “fc of ULBP1 (expression array)” value (Refseq NM_025218.2) was 0.6193 and the C6orf148 expression fc (Refseq NM_030568.2) was −0.1046. For the same molecule, the KLHL15 expression fc (Refseq NM_030624.1) was 0.7742, the “fc of ZBP1 (expression array)” value (Refseq NM_030776.1) was 1.187 and the SLC2A10 fc (Refseq NM_030777.3) was −0.3197. It also gave an SYNC1 fc (Refseq NM_030786.1) of −0.2508, a PDRG1 expression fc (Refseq NM_030815.2) of 0.0622 and a UNC93B1 expression fc (Refseq NM_030930.2, cultured human skeletal muscle) of 0.9411. For the same molecule, the PPP1R14C expression fc (Refseq NM_030949.2) was −0.01369, the TRIM56 fc (Refseq NM_030961.1) was 0.3086 and the “fc of RNF146 (expression array)” value (Refseq NM_030963.2) was 0.1463. The ADPGK expression fc (Refseq NM_031284.3) was 0.09196, the C11orf68 fc (Refseq NM_031450.2) was 0.3616 and the FAM107B expression fc (Refseq NM_031453.2) was −0.1841. It also gave a PARP9 expression fc (Refseq NM_031458.1, cultured human skeletal muscle) of 0.4426, an IFI27L2 fc (Refseq NM_032036.2) of −0.02949 and an SFRS2B expression fc (Refseq NM_032102.2) of −0.3335. The “fc of ATRIP (expression array)” value (Refseq NM_032166.2) was 0.002138, the CEP78 expression fc (Refseq NM_032171.1) was −0.1396 and the SON expression fc (Refseq NM_032195.1) was −0.2838. It also gave an LARP1B expression fc (Refseq NM_032239.2) of −0.2602, an MED10 expression fc (Refseq NM_032286.2) of 0.5994 and a C1orf57 fc (Refseq NM_032324.1) of 0.3544. For the same molecule, the ELOF1 expression fc (Refseq NM_032377.3) was −0.3008, the “fc of C15orf48 (expression array)” value (Refseq NM_032413.2) was 1.653 and the PKIB expression fc (Refseq NM_032471.4) was −0.1719. The KBTBD8 expression fc (Refseq NM_032505.1) was 0.01077, the TMEM185A expression fc (Refseq NM_032508.1) was 0.2327 and the PARD6G fc (Refseq NM_032510.3) was −0.01049. The “fc of EBPL (expression array)” value (Refseq NM_032565.2) was −0.0901, the “fc of ACCS (expression array)” value (Refseq NM_032592.3) was −0.1557 and the RBBP6 expression fc (Refseq NM_032626.5) was −0.1339. For the same molecule, the SPRYD5 expression fc (Refseq NM_032681.1) was −0.07702, the “fc of SPPL2A (expression array)” value (Refseq NM_032802.3) was 1.124 and the ATOH8 expression fc (Refseq NM_032827.4, cultured human skeletal muscle) was −0.2886. The CORO6 fc (Refseq NM_032854.2) was −0.3004, the “fc of TIGD5 (expression array)” value (Refseq NM_032862.2) was −0.2163 and the CASP6 expression fc (Refseq NM_032992.2) was 0.2336. The TRIM5 fc (Refseq NM_033034.1) was 0.5003, the EPSTI1 expression fc (Refseq NM_033255.2, cultured human skeletal muscle) was 0.6618 and the TP53INP1 fc (Refseq NM_033285.2) was −0.5734. The CASP1 fc (Refseq NM_033294.2) was 2.171, the PRIC285 expression fc (Refseq NM_033405.2, cultured human skeletal muscle) was 0.8634 and the ZNF622 expression fc (Refseq NM_033414.2) was 0.01403. The PANX2 expression fc (Refseq NM_052839.2) was 0.2001, the “fc of C20orf72 (expression array)” value (Refseq NM_052865.2) was −0.05254 and the “fc of GBP5 (expression array)” value (Refseq NM_052942.2) was 1.314. For the same molecule, the “fc of ALPK2 (expression array)” value (Refseq NM_052947.3) was −1.08, the “fc of ANTXR1 (expression array)” value (Refseq NM_053034.1) was 0.3595 and the AP1S1 fc (Refseq NM_057089.2) was −0.1404. For the same molecule, the CCNE1 expression fc (Refseq NM_057182.1) was −0.1277, the FBXO32 fc (Refseq NM_058229.2) was 0.7666 and the CCNT2 expression fc (Refseq NM_058241.1) was −0.3221. For the same molecule, the SLC44A1 fc (Refseq NM_080546.3) was 0.7801, the “fc of C2orf28 (expression array)” value (Refseq NM_080592.2) was −0.07859 and the DYNLL2 expression fc (Refseq NM_080677.1) was 0.6521. For the same molecule, the HOM-TES-103 fc (Refseq NM_080731.1) was −0.3166, the ZNF280A expression fc (Refseq NM_080740.3) was 0.05889 and the C20orf127 expression fc (Refseq NM_080757.1, cultured human skeletal muscle) was 0.4401. For the same molecule, the “fc of PTPRA (expression array)” value (Refseq NM_080841.2) was 0.04113, the ASB5 fc (Refseq NM_080874.2) was −0.4567 and the APBB3 expression fc (Refseq NM_133172.2, cultured human skeletal muscle) was 0.03992. The “fc of DIS3L (expression array)” value (Refseq NM_133375.2) was −0.2728, the C6orf117 expression fc (Refseq NM_138409.1) was −0.06998 and the “fc of SDSL (expression array)” value (Refseq NM_138432.2) was −0.09243. The TRIM43 expression fc (Refseq NM_138800.1) was 0.02385, the CMBL expression fc (Refseq NM_138809.3, cultured human skeletal muscle) was 0.06858 and the “fc of FGD4 (expression array)” value (Refseq NM_139241.1) was 1.214. It also gave an ANGPTL4 fc (Refseq NM_139314.1) of 1.267, an MBD3L2 expression fc (Refseq NM_144614.2) of 0.02684 and a JSRP1 fc (Refseq NM_144616.2) of −0.4661. For the same molecule, the “fc of PPM1M (expression array)” value (Refseq NM_144641.1) was −0.2381, the “fc of C1orf58 (expression array)” value (Refseq NM_144695.2) was 1.054 and the FXYD5 fc (Refseq NM_144779.1) was 0.09461. For the same molecule, the Cllorf82 expression fc (Refseq NM_145018.2) was −0.2738, the CDC42EP5 fc (Refseq NM_145057.2) was 0.1387 and the SPATA18 expression fc (Refseq NM_145263.2, cultured human skeletal muscle) was −0.214. The MOBKL2C fc (Refseq NM_145279.4) was 0.1274, the ZNF296 expression fc (Refseq NM_145288.1) was 0.1758 and the “fc of MGST1 (expression array)” value (Refseq NM_145792.1) was 0.2271. The OSBPL7 fc (Refseq NM_145798.2) was −0.3669, the TP53I3 expression fc (Refseq NM_147184.1, cultured human skeletal muscle) was 0.192 and the “fc of GJD3 (expression array)” value (Refseq NM_152219.3) was 0.8646. For the same molecule, the ACPL2 fc (Refseq NM_152282.3) was 0.1468, the “fc of C1orf131 (expression array)” value (Refseq NM_152379.2) was −0.08789 and the “fc of PPM1K (expression array)” value (Refseq NM_152542.2) was 1.44. It also gave a C12orf50 expression fc (Refseq NM_152589.1) of −0.02137.

Reference: patent US20140242093A1, “METHODS AND COMPOSITIONS FOR MODULATING THE INNATE IMMUNE RESPONSE AND/OR MYOGENESIS IN A MAMMALIAN SUBJECT” (FRED HUTCHINSON CANCER RESEARCH CENTER, priority 2011, published 2014)
